Experimental data: patent US7423017B2, “Method for treating cartilage disorders” (Genentech, Inc., priority 1997, dated 2008)

What was measured:
IGFBP-1 [1] = assay: competitive phage ELISA of IGF-1 mutants, IGFBP-1; format: binding, human; conditions: relative IC50 IGFBP-1/relative IC50 IGFBP-3
Protocol: (§1) An alanine-scanning mutagenesis approach (Cunningham and Wells, Science, 244: 1081-1085 (1989); U.S. Pat. No. 5,834,250) was used to remove that portion of each side chain of IGF-1 beyond the beta carbon. The contribution of these atoms to the free energy of binding of the IGF-1 analog to IGFBP-1 or to IGFBP-3 was then assessed by competitive phage ELISA. In this assay, IGFBP-1 or IGFBP-3 is used to inhibit IGF-phage mutants from binding to an IGFBP-1- or IGFBP-3-coated immunosorbant plate.
(§2) Immunosorbent plates (Nunc, MAXISORP™, 96 wells) were coated with 100 μl/well of 1 μg/ml IGFBP-1 or IGFBP-3 in PBS buffer pH 7.2 at 4° C. overnight. The plates were then blocked with 0.5% TWEEN 20™/PBS (also used as binding buffer) for 2 hours at room temperature (proteinaceous blocking agents like bovine serum albumin were avoided to prevent potential IGF or IGFBP contamination). E. coli cells (XL1-Blue, Stratagene) freshly transformed with phagemid vector were grown overnight in 5 mL 2YT medium (Sambrook et al., supra) in the presence of M13-VCS helper phage (Stratagene). Phage particles were harvested and resuspended in PBS buffer as described in Lowman, H. B., “Phage Display of Peptide Libraries on Protein Scaffolds,” in Cabilly, S. (ed.), Combinatorial Peptide Library Protocols (Humana Press Inc.: Totowa, N.J., 1998), pp. 249-264. Then phage concentrations were normalized to yield a maximal ELISA signal of 0.2-0.4 for each mutant (Lowman, in Cabilly, S. (ed.), supra). Threefold serial dilutions of soluble competitor were prepared on non-absorbent microtiter plates (Nunc, F, 96 wells) with binding buffer (0.5% TWEEN 20™/PBS) containing phage at the previously determined concentrations. The dilution range of competitor protein extended over six orders of magnitude, starting at 5 μM for IGFBP-1 and 500 nM for IGFBP-3. After blocking, the plates containing immobilized target were washed with 0.05% TWEEN™/PBS buffer and subsequently incubated with 80 μl/well of the premixed phage-competitor solutions for 1 hour at room temperature. After washing, bound phage was detected with 80 μl/well of a solution containing a primary rabbit anti-phage polyclonal antibody and a secondary goat anti-rabbit monoclonal antibody-horseradish peroxidase conjugate in 0.5% TWEEN 20™/PBS. o-Phenylenediamine (Sigma) and tetramethylbenzidine (Kirkegaard and Perry) were used as chromogenic substrates, resulting in product detection at 492 and 450 nm, respectively. IC50 values were determined by fitting the binding data to a generic saturation curve (Lowman, in Cabilly, S. (ed.), supra). At least two individual clones of each IGF-1 mutant were assayed. Numbers in Table XIII represent mean±standard deviation of individually assessed IC50 values.

IGFBP-3 = biological target: T1, IGFBP-3 (Homo sapiens, UniProt P17936); assay: competitive phage ELISA of IGF-1 mutants, IGFBP-3; format: binding; conditions: for IC50: phage display, soluble IGFBP-3 competitor; for increase in IGFBP-3 binding / larger effects on IGFBP-3 than on IGFBP-1 binding: phage ELISA
T1 construct: made in house
Protocol: as §1, §2

IGFBP-1 [2] = biological target: T2, IGFBP-1 (Homo sapiens, UniProt P08833); assay: competitive phage ELISA of IGF-1 mutants, IGFBP-1; format: binding; parameters: made in house; host or cells: CHO cells; conditions: for IC50: phage display, soluble IGFBP-1 competitor; for increase in IGFBP-1 binding: phage ELISA
T2 sequence (P08833 26-259): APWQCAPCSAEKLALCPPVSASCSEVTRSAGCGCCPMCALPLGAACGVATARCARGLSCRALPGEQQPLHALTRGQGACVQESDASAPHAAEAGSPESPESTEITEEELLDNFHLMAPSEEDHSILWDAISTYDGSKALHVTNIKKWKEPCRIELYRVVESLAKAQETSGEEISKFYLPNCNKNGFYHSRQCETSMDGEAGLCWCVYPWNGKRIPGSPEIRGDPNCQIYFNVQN
Protocol: as §1, §2

[3] = IC50 mut/IC50 G1S-A70V, listed as des(1-2)-IGF-1

T1 sequence (P17936 28-291): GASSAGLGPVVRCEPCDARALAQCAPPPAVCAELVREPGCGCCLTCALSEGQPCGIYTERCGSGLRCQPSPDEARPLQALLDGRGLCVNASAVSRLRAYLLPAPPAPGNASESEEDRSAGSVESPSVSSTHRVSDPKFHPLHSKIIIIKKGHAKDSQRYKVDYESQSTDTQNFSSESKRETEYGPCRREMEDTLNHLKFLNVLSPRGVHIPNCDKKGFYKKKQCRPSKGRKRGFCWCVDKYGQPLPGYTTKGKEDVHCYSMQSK

Substance	relative specificity (IGFBP-1 [1])	IC50 (IGFBP-3) [nM]	IC50 (IGFBP-1 [2]) [nM]	increase in IGFBP-3 binding (IGFBP-3)	larger effects on IGFBP-3 than on IGFBP-1 binding (IGFBP-3)	increase in IGFBP-1 binding (IGFBP-1 [2])	IGFBP-3 relative IC50 (IGFBP-3; [3])	IGFBP-1 Relative IC50 (IGFBP-1 [2]; [3])
S51A: IGF-1 single alanine mutant	1.9	0.65 ± 0.35	13.4 ± 0.4					
G30A: IGF-1 single alanine mutant	1.1	0.58 ± 0.11	7.1 ± 1.7					
R21A: IGF-1 single alanine mutant	1.1	0.58 ± 0.01	7.1 ± 1.6					
S35A: IGF-1 single alanine mutant	2.3	0.47 ± 0.01	11.7 ± 0.6	approximately 2 fold				
K27A: IGF-1 single alanine mutant	1.8	0.66 ± 0.35	12.8 ± 0.1					
P63A: IGF-1 single alanine mutant		> 100	> 1000					
D45A: IGF-1 single alanine mutant	0.6	0.69 ± 0.21	4.7 ± 0.7		about 2 fold	approximately 2 fold		
F23A: IGF-1 single alanine mutant	0.5	2.18 ± 0.01	10.9 ± 1.9		about 2 fold			
D53A: IGF-1 single alanine mutant	1.6	1.05 ± 0.11	15.3 ± 2.8					
V17A: IGF-1 single alanine mutant	1.1	3.67 ± 1.02	42.9 ± 3.2					
L57A: IGF-1 single alanine mutant	1.1	1.78 ± 0.56	21.8 ± 5.6					
Y24A: IGF-1 single alanine mutant	0.5	2.53 ± 0.76	13.3 ± 2.9		about 2 fold			
S33A: IGF-1 single alanine mutant	0.8	1.01 ± 0.24	9.1 ± 1					
G22A: IGF-1 single alanine mutant	0.7	2.07 ± 0.11	15.9 ± 2.8					
V70A: single mutant of G1S-A70V IGF-1 restoring A70	2.6							
M59A: IGF-1 single alanine mutant	1.6	0.74 ± 0.14	13.1 ± 1.8					
S1G: single mutant of G1S-A70V IGF-1 restoring G1	1.0							
G32A: IGF-1 single alanine mutant	1.3	0.76 ± 0.28	10.9 ± 1.3					
G7A: IGF-1 single alanine mutant		4.58 ± 0.28	> 1000					
D20A: IGF-1 single alanine mutant	0.7	1.11 ± 0.06	8.4 ± 4.1					
T29A: IGF-1 single alanine mutant	0.5	1.23 ± 0.16	7.3 ± 2.4		about 2 fold			
L14A: IGF-1 single alanine mutant	3.7	0.9 ± 0.04	36.7 ± 1.1					
P66A: IGF-1 single alanine mutant	1.5	0.57 ± 0.12	9.4 ± 3.2					
Q40A: IGF-1 single alanine mutant	1.7	0.56 ± 0.03	10.2 ± 0.9					
I43A: IGF-1 single alanine mutant	2.4	1.17 ± 0.07	31.3 ± 4.1					
Q15A: IGF-1 single alanine mutant	1.0	1.26 ± 0.41	13.9 ± 0.9					

Substance	relative specificity (IGFBP-1 [1])	IC50 (IGFBP-3) [nM]	IC50 (IGFBP-1 [2]) [nM]	increase in IGFBP-3 binding (IGFBP-3)	larger effects on IGFBP-3 than on IGFBP-1 binding (IGFBP-3)	increase in IGFBP-1 binding (IGFBP-1 [2])	IGFBP-3 relative IC50 (IGFBP-3; [3])	IGFBP-1 Relative IC50 (IGFBP-1 [2]; [3])
E46A: IGF-1 single alanine mutant	0.8	0.94 ± 0.28	7.9 ± 2.1					
V44A: IGF-1 single alanine mutant	1.7	1.03 ± 0.06	18.8 ± 5.4					
K65A: IGF-1 single alanine mutant	1.6	0.69 ± 0.05	12.4 ± 0.6					
E3A: IGF-1 single alanine mutant		1.05 ± 0.08	278 ± 86					
Des(1-2)-IGF: IGF-1 mutant lacking residues 1 and 2	0.9						no difference in affinity	no difference in affinity
L54A: IGF-1 single alanine mutant	1.2	1.83 ± 0.91	23.1 ± 12					
Y31A: IGF-1 single alanine mutant	0.9	0.73 ± 0.1	6.8 ± 0.5					
Y60A: IGF-1 single alanine mutant	1.2	0.52 ± 0.01	6.6 ± 1.8					
G42A: IGF-1 single alanine mutant	2.7	0.53 ± 0.2	15.7 ± 3.4					
R37A: IGF-1 single alanine mutant	1.5	0.75 ± 0.08	12.3 ± 0.1					
L5A: IGF-1 single alanine mutant	3.3	1.53 ± 0.22	55.3 ± 11.6					
P2A: IGF-1 single alanine mutant	1.2	0.81 ± 0.18	11 ± 3.7					
E58A: IGF-1 single alanine mutant	1.1	1.03 ± 0.47	11.9 ± 1.8					
K68A: IGF-1 single alanine mutant	1.3	0.76 ± 0.23	10.5 ± 2.8					
P28A: IGF-1 single alanine mutant	0.6	1.41 ± 0.05	9.3 ± 1.4					
L10A: IGF-1 single alanine mutant		3.55 ± 0.33	311 ± 87					
L64A: IGF-1 single alanine mutant	1.2	0.93 ± 0.03	12.1 ± 3.3					
G19A: IGF-1 single alanine mutant	1.1	0.9 ± 0.28	11 ± 2.3					
D12A: IGF-1 single alanine mutant	0.3	1.49 ± 0.38	4.3 ± 0.8		about 2 fold	approximately 2 fold		
R55A: IGF-1 single alanine mutant	1.2	0.66 ± 0.03	9 ± 2.3					
R56A: IGF-1 single alanine mutant	1.2	1 ± 0.19	13.1 ± 1.8					
N26A: IGF-1 single alanine mutant	0.9	0.9 ± 0.07	9.1 ± 1.8					
E9A: IGF-1 single alanine mutant	0.6	1.32 ± 0.3	8.6 ± 0.6		about 2 fold			
S34A: IGF-1 single alanine mutant	0.5	1.65 ± 0.21	9.5 ± 0.7		about 2 fold			
T41A: IGF-1 single alanine mutant	2.9	0.43 ± 0.06	13.7 ± 3.1	approximately 2 fold				
S69A: IGF-1 single alanine mutant	1.3	0.71 ± 0.62	12.8 ± 2.3					
